The values that follow come from article PMC4578769, “Development of a Fluorescence-based Trypanosoma cruzi CYP51 Inhibition Assay for Effective Compound Triaging in Drug Discovery Programmes for Chagas Disease” (PLoS Neglected Tropical Diseases, 2015).

Substrate in this data set: N#Cc1cc2ccc(OCOCc3ccccc3)cc2oc1=O
The data set can be described thus: Michaelis-Menten kinetic determination of BOMCC O-dealkylation. In kind it is biochemical, Trypanosoma cruzi. The settings on record: other: 37 pmoles/mL T. cruzi CYP51 enzyme, 25-250 μM BOMCC, 37°C. The protocol: Incubations were pre-warmed at 37°C before addition of NADPH regenerating system. Production of CHC was measured at 1 minute intervals at 37°C (Exc 410 nm, Em 460 nm) for 10 minutes (Fig 3b). […] Assay conditions of 37 pmoles/mL of T. cruzi CYP51 in bactosomes and 100 μM BOMCC provided a good dynamic range of metabolism.

B1: T. cruzi CYP51 (Trypanosoma cruzi strain CL Brener) (protein)
chain: MFIEAIVLALTALILYSVYSVKSFNTTRPTDPPVYPVTVPFLGHIVQFGKNPLEFMQRCKRDLKSGVFTISIGGQRVTIVGDPHEHSRFFSPRNEILSPREVYTIMTPVFGEGVAYAAPYPRMREQLNFLAEELTIAKFQNFVPAIQHEVRKFMAENWKEDEGVINLLEDCGAMIINTACQCLFGEDLRKRLNARHFAQLLSKMESSLIPAAVFMPWLLRLPLPQSARCREARAELQKILGEIIVAREKEEASKDNNTSDLLGGLLKAVYRDGTRMSLHEVCGMIVAAMFAGQHTSTITTSWSMLHLMHPKNKKWLDKLHKEIDEFPAQLNYDNVMDEMPFAERCVRESIRRDPPLLMVMRMVKAEVKVGSYVVPKGDIIACSPLLSHHDEEAFPNPRLWDPERDEKVDGAFIGFGAGVHKCIGQKFALLQVKTILATAFREYDFQLLRDEVPDPDYHTMVVGPTLNQCLVKYTRKKKLPS
notes: ompA leader (N); host or cells: E. coli JM109 (membrane fraction, bactosomes)
Turning to B1, the Km (commonly the substrate concentration at which the rate is half of its maximum) came out at 191 ± 55 µM.
